The values below come from US20180371107A1 (published 2018).

Bounds are passed on as bounds.

Assay [1] addresses T1, mouse NSP4 (mNSP4), form not stated in Example 6 (mouse, UniProt Q14B24 40-284, limits assumed).
T1 construct: also called recombinant mouse NSP4; purified mouse NSP4
T1 sequence (looked up): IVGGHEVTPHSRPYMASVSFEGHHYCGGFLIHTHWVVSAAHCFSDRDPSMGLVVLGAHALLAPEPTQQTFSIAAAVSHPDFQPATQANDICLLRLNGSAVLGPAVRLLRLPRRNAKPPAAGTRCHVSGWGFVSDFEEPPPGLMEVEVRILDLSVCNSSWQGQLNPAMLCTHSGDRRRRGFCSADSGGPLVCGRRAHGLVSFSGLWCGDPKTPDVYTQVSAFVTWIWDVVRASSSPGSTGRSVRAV
Briefly: ratio of phage IC50 against the parental clone 51.WT.

In assay [2] the target is T1, mouse NSP4 (mNSP4), form not stated in …. In words: phage competition binding assay (phage IC50), soluble mNSP4 competitor.
Assay [3] concerns the target T2, human active NSP4 (hA-NSP4) (human, UniProt Q6UWY2 34-283).
T2 construct: range 34-283; Insect-cell material of the same construct was used for the crystal structures; also called mature form of human NSP4
T2 sequence (looked up): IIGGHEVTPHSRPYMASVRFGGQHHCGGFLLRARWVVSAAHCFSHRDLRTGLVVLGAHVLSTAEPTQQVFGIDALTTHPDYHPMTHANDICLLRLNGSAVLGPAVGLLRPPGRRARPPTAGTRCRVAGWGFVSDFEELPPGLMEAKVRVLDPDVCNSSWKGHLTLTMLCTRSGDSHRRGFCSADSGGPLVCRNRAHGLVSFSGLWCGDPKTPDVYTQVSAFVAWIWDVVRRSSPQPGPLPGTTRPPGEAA
In words: competition phage ELISA (phage IC50): phage clone preincubated with soluble hA-NSP4, then on NSP4-coated wells.

The target of assay [4] is T3, mouse active NSP4 (mA-NSP4) (mouse, UniProt Q14B24 40-284).
T3 chain: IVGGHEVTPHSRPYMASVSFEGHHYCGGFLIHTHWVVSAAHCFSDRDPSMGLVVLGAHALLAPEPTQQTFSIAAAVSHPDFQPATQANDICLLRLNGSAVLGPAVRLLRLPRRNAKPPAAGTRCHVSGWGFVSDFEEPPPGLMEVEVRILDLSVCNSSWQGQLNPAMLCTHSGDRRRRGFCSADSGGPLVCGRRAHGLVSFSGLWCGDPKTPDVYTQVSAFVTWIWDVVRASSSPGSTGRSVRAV
In words: BLI; no affinity.

Assay [5] deals with T4, mouse zymogen NSP4 (mZ-NSP4) (mouse, UniProt Q14B24 36-284).
T4 chain: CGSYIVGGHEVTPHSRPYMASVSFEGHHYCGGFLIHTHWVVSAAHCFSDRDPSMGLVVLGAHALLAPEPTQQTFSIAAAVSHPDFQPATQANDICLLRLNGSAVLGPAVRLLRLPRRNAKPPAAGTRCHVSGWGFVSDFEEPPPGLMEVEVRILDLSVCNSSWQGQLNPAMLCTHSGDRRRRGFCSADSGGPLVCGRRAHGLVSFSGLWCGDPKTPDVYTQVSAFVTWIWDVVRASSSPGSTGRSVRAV
Briefly: BLI; no affinity.

B1: affinity matured anti-NSP4 antibody clone 51.72 (Fab, V domains shown)
VH: EVQLVESGGGLVQPGGSLRLSCAASGFTFSGSGIHWVRQAPGKGLEWVAWISPTGGNTYYADSVKGRFTISADTSKNTAYLQMNSLRAEDTAVYYCAKSLFHNVAFDYWGQGTLVTVSS
VL: DIQMTQSPSSLSASVGDRVTITCRASQDVSTAVAWYQQKPGKAPKLLIYSASFLYSGVPSRFSGSGSGTDFTLTISSLQPEDFATYYCQQSYTAPPTFGQGTKVEIKR
As for B1, the “Affinity improvement to mNSP4” value in assay [1] came out at 49.8 fold. The IC50 in assay [2] was 0.375 nM.

B2: anti-NSP4 antibody 2-4 (antibody, V domains shown)
VH: EVQLVESGGGLVQPGGSLRLSCAASGFTFSDYWISWVRQAPGKGLEWVAGISPNNGDTYYADSVKGRFTISADTSKNTAYLQMNSLRAEDTAVYYCAREDDDERDYAMDYWGQGTLVTVSS
VL: DIQMTQSPSSLSASVGDRVTITCRASQDVSTAVAWYQQKPGKAPKLLIYSASFLYSGVPSRFSGSGSGTDFTLTISSLQPEDFATYYCQQSYTTPPTFGQGTKVEIKR
Consider B2, for which the IC50 in assay [3] was 1.63 nM.

B3: anti-NSP4 antibody 1-1 (antibody, V domains shown)
VH: EVQLVESGGGLVQPGGSLRLSCAASGFTFSGSWISWVRQAPGKGLEWVGTISPYNGSTYYADSVKGRFTISADTSKNTAYLQMNSLRAEDTAVYYCARVLRPKVYASVMDYWGQGTLVTVSS
VL: DIQMTQSPSSLSASVGDRVTITCRASQDVSTAVAWYQQKPGKAPKLLIYSASFLYSGVPSRFSGSGSGTDFTLTISSLQPEDFATYYCQQSYTTPPTFGQGTKVEIKR
As for B3, the Kd in assay [4] and in assay [5] was greater than 1000 nM each time.

B4: anti-NSP4 antibody 2-2 (antibody, V domains shown)
VH: EVQLVESGGGLVQPGGSLRLSCAASGFTFSSTAISWVRQAPGKGLEWVGEIYPSDGYTDYADSVKGRFTISADTSKNTAYLQMNSLRAEDTAVYYCARVKWAVSSLGVMDYWGQGTLVTVSS
VL: DIQMTQSPSSLSASVGDRVTITCRASQDVSTAVAWYQQKPGKAPKLLIYSASFLYSGVPSRFSGSGSGTDFTLTISSLQPEDFATYYCQQSYTTPPTFGQGTKVEIKR
For B4, the Kd in assay [4] is greater than 1000 nM. In addition, the IC50 in assay [3] came to 10.1 nM.

B5: anti-NSP4 antibody 2-1 (antibody, V domains shown)
VH: EVQLVESGGGLVQPGGSLRLSCAASGFTFTDYSIHWVRQAPGKGLEWVAEIYPYSGDTYYADSVKGRFTISADTSKNTAYLQMNSLRAEDTAVYYCARDGDGWFDWAMDYWGQGTLVTVSS
VL: DIQMTQSPSSLSASVGDRVTITCRASQDVSTAVAWYQQKPGKAPKLLIYSASFLYSGVPSRFSGSGSGTDFTLTISSLQPEDFATYYCQQSYTTPPTFGQGTKVEIKR
As to B5, the IC50 in assay [3] was found to be 3.81 nM. In other words, the single-digit nanomolar range.

B6: anti-NSP4 antibody 1-5 (antibody, V domains shown)
VH: EVQLVESGGGLVQPGGSLRLSCAASGFTFTNNSISWVRQAPGKGLEWVGAISPNNGSTYYADSVKGRFTISADTSKNTAYLQMNSLRAEDTAVYYCARNAWHYSWVGVMDYWGQGTLVTVSS
VL: DIQMTQSPSSLSASVGDRVTITCRASQDVSTAVAWYQQKPGKAPKLLIYSASFLYSGVPSRFSGSGSGTDFTLTISSLQPEDFATYYCQQSYTTPPTFGQGTKVEIKR
Take B6: the Kd in assay [4] and in assay [5] was greater than 1000 nM throughout.

B7: anti-NSP4 antibody 1-3 (antibody, V domains shown)
VH: EVQLVESGGGLVQPGGSLRLSCAASGFTFSDNWISWVRQAPGKGLEWVGYIYPASGYTDYADSVKGRFTISADTSKNTAYLQMNSLRAEDTAVYYCASDSPHAYWYAMDYWGQGTLVTVSS
VL: DIQMTQSPSSLSASVGDRVTITCRASQDVSTAVAWYQQKPGKAPKLLIYSASFLYSGVPSRFSGSGSGTDFTLTISSLQPEDFATYYCQQSYTTPPTFGQGTKVEIKR
B7: the Kd in assay [4] and in assay [5] was greater than 1000 nM in each case.

B8: anti-NSP4 antibody 4-2 (antibody, V domains shown)
VH: EVQLVESGGGLVQPGGSLRLSCAASGFTFSGSDISWVRQAPGKGLEWVGEIYPSNGDTYYADSVKGRFTISADTSKNTAYLQMNSLRAEDTAVYYCARSVRPSWWAMDYWGQGTLVTVSS
VL: DIQMTQSPSSLSASVGDRVTITCRASQDVSTAVAWYQQKPGKAPKLLIYSASFLYSGVPSRFSGSGSGTDFTLTISSLQPEDFATYYCQQSYTTPPTFGQGTKVEIKR
As for B8, the Kd in assay [4] and in assay [5] was greater than 1000 nM each time. The IC50 in assay [3] stood at 84.8 nM.

B9: anti-NSP4 antibody 4-3 (antibody, V domains shown)
VH: EVQLVESGGGLVQPGGSLRLSCAASGFTFSSYDISWVRQAPGKGLEWVGTISPYDGYTDYADSVKGRFTISADTSKNTAYLQMNSLRAEDTAVYYCARYIRRYSVHYGMDYWGQGTLVTVSS
VL: DIQMTQSPSSLSASVGDRVTITCRASQDVSTAVAWYQQKPGKAPKLLIYSASFLYSGVPSRFSGSGSGTDFTLTISSLQPEDFATYYCQQSYTTPPTFGQGTKVEIKR
In the case of B9, the Kd in assay [4] and in assay [5] was greater than 1000 nM each time.

B10: anti-NSP4 antibody 2-5 (antibody, V domains shown)
VH: EVQLVESGGGLVQPGGSLRLSCAASGFTFTGYGISWVRQAPGKGLEWVGWIYPASGATYYADSVKGRFTISADTSKNTAYLQMNSLRAEDTAVYYCARHRAFDWYPYYIGSSVMDYWGQGTLVTVSS
VL: DIQMTQSPSSLSASVGDRVTITCRASQDVSTAVAWYQQKPGKAPKLLIYSASFLYSGVPSRFSGSGSGTDFTLTISSLQPEDFATYYCQQSYTTPPTFGQGTKVEIKR
Regarding B10, the Kd in assay [4] is greater than 1000 nM. The molecule further showed an IC50 in assay [3] of 5130 nM.

B11: anti-NSP4 antibody 1-2 (antibody, V domains shown)
VH: EVQLVESGGGLVQPGGSLRLSCAASGFTFSGYSIHWVRQAPGKGLEWVAGISPTNGYTDYADSVKGRFTISADTSKNTAYLQMNSLRAEDTAVYYCARLVFYRGVMDYWGQGTLVTVSS
VL: DIQMTQSPSSLSASVGDRVTITCRASQDVSTAVAWYQQKPGKAPKLLIYSASFLYSGVPSRFSGSGSGTDFTLTISSLQPEDFATYYCQQSYTTPPTFGQGTKVEIKR
In the case of B11, the Kd in assay [4] and in assay [5] was greater than 1000 nM throughout.

B12: anti-NSP4 antibody 4-4 (antibody, V domains shown)
VH: EVQLVESGGGLVQPGGSLRLSCAASGFTFTSTSIHWVRQAPGKGLEWVAEITPHGGYTNYADSVKGRFTISADTSKNTAYLQMNSLRAEDTAVYYCARGRTKWGWLYGMDYWGQGTLVTVSS
VL: DIQMTQSPSSLSASVGDRVTITCRASQDVSTAVAWYQQKPGKAPKLLIYSASFLYSGVPSRFSGSGSGTDFTLTISSLQPEDFATYYCQQSYTTPPTFGQGTKVEIKR
On to B12, for which the Kd in assay [4] and in assay [5] was greater than 1000 nM in each case. The same molecule displayed a half-maximal inhibitory concentration (IC50) in assay [3] of 1.48 nM.

B13: anti-NSP4 antibody 2-3 (antibody, V domains shown)
VH: EVQLVESGGGLVQPGGSLRLSCAASGFTFTDSDISWVRQAPGKGLEWVAWISPSDGATDYADSVKGRFTISADTSKNTAYLQMNSLRAEDTAVYYCAHEASDDDYAIDYWGQGTLVTVSS
VL: DIQMTQSPSSLSASVGDRVTITCRASQDVSTAVAWYQQKPGKAPKLLIYSASFLYSGVPSRFSGSGSGTDFTLTISSLQPEDFATYYCQQSYTTPPTFGQGTKVEIKR
In assay [3], B13 registered an IC50 of 4.96 nM. This counts as single-digit nanomolar.

B14: affinity matured anti-NSP4 antibody clone 51.30 (Fab, V domains shown)
VH: EVQLVESGGGLVQPGGSLRLSCAASGFTFSGSGIHWVRQAPGKGLEWVAWIPTAGGNTYYADSVKGRFTISADTSKNTAYLQMNSLRAEDTAVYYCAKSLFHNVAFDYWGQGTLVTVSS
VL: DIQMTQSPSSLSASVGDRVTITCRASQDVSTAVAWYQQKPGKAPKLLIYSASFLYSGVPSRFSGSGSGTDFTLTISSLQPEDFATYYCQQSYTAPPTFGQGTKVEIKR
For the molecule B14, the “Affinity improvement to mNSP4” value in assay [1] turned out to be 161 fold. In addition, in assay [2], the IC50 worked out at 0.116 nM.
